Where two headings read alike, the source gives them in different places.
Experiments:
PykF [1] = details: in vitro; result in words
E. coli MG1655 = assay: Growth curve; format: cell-based; details: 37 °C, result in words
Procedure: As previous described, the strains were cultured in LB medium overnight, then diluted 1:1000 in LB or M9 medium (with 1% glucose or 1% pyruvate) and incubated at 37 °C with 96-well plates, and each strain was added to three wells. The absorbance at 600 nm at initiation was set as a blank and measured every hour using a spectrophotometer. All the growth dynamic curves were drawn using Origin 8.0.

PykF [2] = details: for Relative activity of PykF: intracellular; for intracellular PykF activity: result in words
whole-cell lysates = assay: Whole-cell lysate reaction, lactate to La-CoA; parameters: species or system E. coli MG1655; details: result in words
Procedure: This method was described previously. In detail, E. coli MG1655 was cultured in LB medium at 37 °C in shaken flasks overnight and harvested the cells by centrifugation, then added lysate buffer [[…], […] and 5 mM MgCl2, PH 7.0] and broke cells by ultrasound on ice, the supernatant was extracted by high-speed centrifugation as the whole protein lysate. Then measured protein concentration by BCA and adjusted the protein concentration to 2 mg/ml. […] Each reaction was performed three biological repetitions.
(§1) Samples dissolved in water were analyzed by an Orbitrap Exploris 480 (Thermo Scientific) mass spectrometer in positive ESI mode using the settings described previously[65],[66]. […] An Orbitrap Exploris 480 (Thermo Fisher Scientific) was employed for MS analysis. Spray voltage was set to 3.5 kV, funnel RF level at 40, and ion transfer tube temperature at 320 °C. Data were collected by Xcalibur (v.4.0.27.19). The orbitrap mass analyzer was used as the MS1 detector with 120,000 resolution. The normalized AGC target and maximum injection time were set at 70% /standard for MS1. The MS2 detector was used 15,000 resolution. Targeted mass setting is lactyl-CoA: 840.1436, acetyl-CoA: 810.1330 and propionate CoA: 824.1487. […] The relative intensity of acyl-CoA was analyzed by Xcalibur (v.4.0.27.19).

YiaC [3] = molecular target: T1, YiaC (Escherichia coli, UniProt P37664); assay: Isothermal titration calorimetry (MicroCal PEAQ-ITC) with acyl-CoA (750 uM in syringe) titrated into YiaC (75 uM in cell) at 25.1 °C according to the data sheet; the methods text gives 500 uM, 50 uM and 37 °C.; format: binding; details: n = 3
T1 construct: recombinant, pET28a vector, expressed in E. coli BL21 (λDE3), purified on HisPur Ni-NTA resin
T1 sequence (P37664 whole entry): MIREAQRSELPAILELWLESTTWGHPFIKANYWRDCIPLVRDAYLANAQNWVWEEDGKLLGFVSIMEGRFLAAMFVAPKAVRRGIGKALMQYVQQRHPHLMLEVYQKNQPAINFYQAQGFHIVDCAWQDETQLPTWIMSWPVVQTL
Procedure: (§2) This method was described previously. […] The volume of the first injection was 0.5 μl of 500 μM actyl-CoA (or actylated peptides), and the following 18 injections were 2.0 μl. The binding isotherm was fit with the Origin 8.0 software (OriginLab). Each group had three biological repetitions.

YiaC [4] = assay: ITC affinity of recombinant YiaC with acyl-CoA; format: binding, E. coli; details: for binding (Bin): result in words
Procedure: as §2

PrpE = assay: In vitro assay for PrpE activity; format: biochemical, E. coli; details: result in words
Procedure: (§3) This method was performed as described previously. In detail, the purified Acs or PrpE with a final concentration of 0.3 μM were added in the reaction buffer [50 mM HEPES, 10 mM MgCl2, 2.5 mM ATP, 0.5 mM HSCoA, 3 mM phosphoenolpyruvate, 0.1 mM NADH, 1 U pyruvate kinase, 1.5 U lactate dehydrogenase, 5 U myokinase, 10 mM DTT, and 0.2 mM organic acid substrate (acetate, lactate and propionate), PH 7.5] at 25 °C for 30 min. […] Each reaction was performed three biological repetitions.
as §1

Acs = assay: In vitro assay for Acs activity; format: biochemical, E. coli; details: result in words
Procedure: as §3, §1

[5] = Fig. 6e, LB medium 37 °C, replicate 1
[6] = Fig. 6e, LB medium 37 °C, replicate 2
[7] = Fig. 6e, LB medium 37 °C, replicate 3
[8] = Fig. 6g, M9 with 1% glucose, replicate 2
[9] = Fig. 6g, M9 with 1% glucose, replicate 3

PykF^K382R: PykF mutant, unmodified K mimic; pPykF^K382R = overexpressing strain
enzymatic activity vs wild type (PykF [1]): increased
growth (E. coli MG1655; LB medium): fastest growth
growth (E. coli MG1655; M9 with 1% glucose): grew fastest
Relative activity of PykF (PykF [2]; [5]): 1.38
Relative activity of PykF (PykF [2]; [6]): 1.06
Relative activity of PykF (PykF [2]; [7]): 1.54
Relative activity of PykF (PykF [2]; Fig. 6g, M9 with 1% glucose, replicate 1): 1.27
Relative activity of PykF (PykF [2]; [8]): 1.36
Relative activity of PykF (PykF [2]; [9]): 1.3593
intracellular PykF activity (PykF [2]; LB medium): highest activity
intracellular PykF activity (PykF [2]; M9 with 1% glucose): highest PykF activity

CC(O)C(=O)O (stereo not drawn) [lactate, reference compound]
conversion to lactyl-CoA / lactyl-CoA level (whole-cell lysates): could be effectively converted to lactyl-CoA

CC(=O)SCCNC(=O)CCNC(=O)[C@H](O)C(C)(C)COP(=O)(O)OP(=O)(O)OC[C@H]1O[C@@H](n2cnc3c(N)ncnc32)[C@H](O)[C@@H]1OP(=O)(O)O [acetyl-CoA, acetyl coenzyme A]
Kd (YiaC [3]): 5.57 µM

PykF^K382Q
enzymatic activity vs wild type (PykF [1]): significantly decreased
growth (E. coli MG1655; LB medium): grew the slowest
growth (E. coli MG1655; M9 with 1% glucose): grew slowest
Relative activity of PykF (PykF [2]; [5]): 0.52
Relative activity of PykF (PykF [2]; [6]): 0.47
Relative activity of PykF (PykF [2]; [7]): 0.58
Relative activity of PykF (PykF [2]; [8]): 0.4941
Relative activity of PykF (PykF [2]; [9]): 0.4204
intracellular PykF activity (PykF [2]; LB medium): lowest activity
intracellular PykF activity (PykF [2]; M9 with 1% glucose): lowest PykF activity

CC(O)C(=O)SCCNC(=O)CCNC(=O)[C@H](O)C(C)(C)COP(=O)(O)OP(=O)(O)OC[C@H]1O[C@@H](n2cnc3c(N)ncnc32)[C@H](O)[C@@H]1OP(=O)(O)O (stereo partly drawn) [lactyl-CoA, lactyl-coenzyme A]
conversion to lactyl-CoA / lactyl-CoA level (whole-cell lysates): low level
Kd (YiaC [4]; cell 50 μM YiaC titrated with 500 μM acyl-CoA, 37 °C (method), three biological repetitions): 6.83 µM
binding (Bin) (YiaC [4]): strong binding
binding (Bin) (YiaC [4]; listed as laCoA): Binding
Kd (YiaC [3]): 6.83 µM

B1: PrpE: propionate CoA synthetase (protein, UniProt P77495 1-628, looked up)
Propionate--CoA ligase: MSFSEFYQRSINEPEQFWAEQARRIDWQTPFTQTLDHSNPPFARWFCEGRTNLCHNAIDRWLEKQPEALALIAVSSETEEERTFTFRQLHDEVNAVASMLRSLGVQRGDRVLVYMPMIAEAHITLLACARIGAIHSVVFGGFASHSVAARIDDAKPVLIVSADAGARGGKIIPYKKLLDDAISQAQHQPRHVLLVDRGLAKMARVSGRDVDFASLRHQHIGARVPVAWLESNETSCILYTSGTTGKPKGVQRDVGGYAVALATSMDTIFGGKAGSVFFCASDIGWVVGHSYIVYAPLLAGMATIVYEGLPTWPDCGVWWTIVEKYQVSRMFSAPTAIRVLKKFPTAEIRKHDLSSLEVLYLAGEPLDEPTASWVSNTLDVPVIDNYWQTESGWPIMAIARGLDDRPTRLGSPGVPMYGYNVQLLNEVTGEPCGVNEKGMLVVEGPLPPGCIQTIWGDDGRFVKTYWSLFSRPVYATFDWGIRDADGYHFILGRTDDVINVAGHRLGTREIEESISSHPGVAEVAVVGVKDALKGQVAVAFVIPKESDSLEDRDVAHSQEKAIMALVDSQIGNFGRPAHVWFVSQLPKTRSGKMLRRTIQAICEGRDPGDLTTIDDPASLDQIRQAMEE
formation of lactyl-CoA from lactate (PrpE): neither Acs nor PrpE could catalyze the formation of lactyl-CoA from lactate

B2: Acs: acetyl-CoA synthetase (protein, UniProt P27550 1-652, looked up)
Acetyl-coenzyme A synthetase: MSQIHKHTIPANIADRCLINPQQYEAMYQQSINVPDTFWGEQGKILDWIKPYQKVKNTSFAPGNVSIKWYEDGTLNLAANCLDRHLQENGDRTAIIWEGDDASQSKHISYKELHRDVCRFANTLLELGIKKGDVVAIYMPMVPEAAVAMLACARIGAVHSVIFGGFSPEAVAGRIIDSNSRLVITSDEGVRAGRSIPLKKNVDDALKNPNVTSVEHVVVLKRTGGKIDWQEGRDLWWHDLVEQASDQHQAEEMNAEDPLFILYTSGSTGKPKGVLHTTGGYLVYAALTFKYVFDYHPGDIYWCTADVGWVTGHSYLLYGPLACGATTLMFEGVPNWPTPARMAQVVDKHQVNILYTAPTAIRALMAEGDKAIEGTDRSSLRILGSVGEPINPEAWEWYWKKIGNEKCPVVDTWWQTETGGFMITPLPGATELKAGSATRPFFGVQPALVDNEGNPLEGATEGSLVITDSWPGQARTLFGDHERFEQTYFSTFKNMYFSGDGARRDEDGYYWITGRVDDVLNVSGHRLGTAEIESALVAHPKIAEAAVVGIPHNIKGQAIYAYVTLNHGEEPSPELYAEVRNWVRKEIGPLATPDVLHWTDSLPKTRSGKIMRRILRKIAAGDTSNLGDTSTLADPGVVEKLLEEKQAIAMPS
formation of lactyl-CoA from lactate (Acs): neither Acs nor PrpE could catalyze the formation of lactyl-CoA from lactate

— paper PMC9636275 (Nature Communications, 2022)
